What all share (test): Kd (EC50 corrected by depletion factor)
One data set has as its target T1, CHERP (UniProt Q8IWX8).
T1 sequence: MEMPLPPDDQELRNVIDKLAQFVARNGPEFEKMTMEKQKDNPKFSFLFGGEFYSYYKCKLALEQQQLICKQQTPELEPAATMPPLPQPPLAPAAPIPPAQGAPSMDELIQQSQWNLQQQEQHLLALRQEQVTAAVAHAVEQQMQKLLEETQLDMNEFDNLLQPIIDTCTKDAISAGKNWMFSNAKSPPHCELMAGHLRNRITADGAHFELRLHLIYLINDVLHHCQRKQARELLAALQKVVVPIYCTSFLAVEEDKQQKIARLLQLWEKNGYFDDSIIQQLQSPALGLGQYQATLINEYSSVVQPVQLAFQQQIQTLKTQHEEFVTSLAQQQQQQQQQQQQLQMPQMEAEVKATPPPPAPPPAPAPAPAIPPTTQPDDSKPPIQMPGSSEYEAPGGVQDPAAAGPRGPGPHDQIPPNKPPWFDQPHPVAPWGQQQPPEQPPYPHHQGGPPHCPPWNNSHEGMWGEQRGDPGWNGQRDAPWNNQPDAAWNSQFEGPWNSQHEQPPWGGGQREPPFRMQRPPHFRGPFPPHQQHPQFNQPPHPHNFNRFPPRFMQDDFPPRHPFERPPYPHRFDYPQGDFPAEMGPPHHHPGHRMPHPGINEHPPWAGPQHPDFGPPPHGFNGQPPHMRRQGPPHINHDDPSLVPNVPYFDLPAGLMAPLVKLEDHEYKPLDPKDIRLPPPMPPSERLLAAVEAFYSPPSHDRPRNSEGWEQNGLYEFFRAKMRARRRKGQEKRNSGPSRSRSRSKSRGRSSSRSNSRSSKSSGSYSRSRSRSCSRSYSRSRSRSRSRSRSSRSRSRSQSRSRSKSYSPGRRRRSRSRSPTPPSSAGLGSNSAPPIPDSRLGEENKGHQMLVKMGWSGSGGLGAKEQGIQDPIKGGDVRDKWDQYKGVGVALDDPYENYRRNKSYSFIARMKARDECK
In outline:
(§1)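 Free RNA oligos (0 nM to 30 μM) competed for 1 h at 4°C in HEK293-FT lysate (2.5 mg protein/well) before a 30 min, 4°C pulldown with the same oligos on NHS-Sepharose beads. Bound proteins were quantified by label-free LC-MS/MS and normalised to the control. Kd was found by multiplying EC50, from a four-parameter log-logistic fit, by a protein-dependent depletion factor.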

The next data set has as its target SLIRP (UniProt Q9GZT3). An outline of the steps:
as §1

For the next data set, the target named is PABPC1 (UniProt P11940). In outline:
as §1

Another data set concerns the target MSI1 (UniProt O43347). An outline of the steps: as §1
The next data set addresses T2, CPSF3 (UniProt Q9UKF6).
T2 sequence: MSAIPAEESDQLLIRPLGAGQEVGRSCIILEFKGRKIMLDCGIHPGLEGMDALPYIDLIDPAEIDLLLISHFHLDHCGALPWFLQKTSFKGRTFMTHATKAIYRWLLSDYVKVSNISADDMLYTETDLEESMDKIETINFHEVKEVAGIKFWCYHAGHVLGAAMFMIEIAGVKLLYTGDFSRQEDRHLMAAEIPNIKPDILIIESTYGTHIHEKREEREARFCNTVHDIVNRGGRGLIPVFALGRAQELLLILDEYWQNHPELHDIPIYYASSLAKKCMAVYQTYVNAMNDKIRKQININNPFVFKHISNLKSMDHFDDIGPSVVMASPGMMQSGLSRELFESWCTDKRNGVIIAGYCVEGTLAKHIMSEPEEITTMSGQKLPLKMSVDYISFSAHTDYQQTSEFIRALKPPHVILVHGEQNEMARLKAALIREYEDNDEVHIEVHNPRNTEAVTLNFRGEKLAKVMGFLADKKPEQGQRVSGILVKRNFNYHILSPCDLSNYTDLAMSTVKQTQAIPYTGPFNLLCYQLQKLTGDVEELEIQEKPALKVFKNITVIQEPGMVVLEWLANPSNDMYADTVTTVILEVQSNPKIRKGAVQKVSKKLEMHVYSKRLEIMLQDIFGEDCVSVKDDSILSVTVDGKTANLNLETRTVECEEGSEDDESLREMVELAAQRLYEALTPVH
In outline: as §1

For a further data set, the target named is T3, RBMS1 (UniProt P29558).
T3 sequence: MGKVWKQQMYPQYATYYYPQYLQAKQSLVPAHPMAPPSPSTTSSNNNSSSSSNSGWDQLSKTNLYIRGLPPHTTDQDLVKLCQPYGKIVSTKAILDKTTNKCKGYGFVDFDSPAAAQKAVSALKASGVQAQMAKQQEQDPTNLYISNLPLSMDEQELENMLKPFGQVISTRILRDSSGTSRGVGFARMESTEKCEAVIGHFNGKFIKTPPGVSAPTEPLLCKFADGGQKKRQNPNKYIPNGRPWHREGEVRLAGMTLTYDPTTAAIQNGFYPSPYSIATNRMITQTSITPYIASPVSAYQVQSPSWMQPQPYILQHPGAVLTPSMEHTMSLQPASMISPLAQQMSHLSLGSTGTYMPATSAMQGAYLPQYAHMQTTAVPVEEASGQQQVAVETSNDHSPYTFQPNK
An outline of the steps: as §1

Another data set addresses T4, HNRNPD (UniProt Q14103).
T4 sequence: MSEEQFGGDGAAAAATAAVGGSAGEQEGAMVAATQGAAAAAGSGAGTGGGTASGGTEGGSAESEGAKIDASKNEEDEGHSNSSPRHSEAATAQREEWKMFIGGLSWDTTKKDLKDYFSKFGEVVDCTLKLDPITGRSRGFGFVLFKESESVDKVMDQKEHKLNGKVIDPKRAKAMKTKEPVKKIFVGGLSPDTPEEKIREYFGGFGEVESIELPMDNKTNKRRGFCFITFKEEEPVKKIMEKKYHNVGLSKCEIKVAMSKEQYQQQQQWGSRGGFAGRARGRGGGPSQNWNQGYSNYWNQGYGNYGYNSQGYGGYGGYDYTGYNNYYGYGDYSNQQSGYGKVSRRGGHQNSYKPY
In outline:
as §1

Chain of PABPC1 (P11940 whole entry): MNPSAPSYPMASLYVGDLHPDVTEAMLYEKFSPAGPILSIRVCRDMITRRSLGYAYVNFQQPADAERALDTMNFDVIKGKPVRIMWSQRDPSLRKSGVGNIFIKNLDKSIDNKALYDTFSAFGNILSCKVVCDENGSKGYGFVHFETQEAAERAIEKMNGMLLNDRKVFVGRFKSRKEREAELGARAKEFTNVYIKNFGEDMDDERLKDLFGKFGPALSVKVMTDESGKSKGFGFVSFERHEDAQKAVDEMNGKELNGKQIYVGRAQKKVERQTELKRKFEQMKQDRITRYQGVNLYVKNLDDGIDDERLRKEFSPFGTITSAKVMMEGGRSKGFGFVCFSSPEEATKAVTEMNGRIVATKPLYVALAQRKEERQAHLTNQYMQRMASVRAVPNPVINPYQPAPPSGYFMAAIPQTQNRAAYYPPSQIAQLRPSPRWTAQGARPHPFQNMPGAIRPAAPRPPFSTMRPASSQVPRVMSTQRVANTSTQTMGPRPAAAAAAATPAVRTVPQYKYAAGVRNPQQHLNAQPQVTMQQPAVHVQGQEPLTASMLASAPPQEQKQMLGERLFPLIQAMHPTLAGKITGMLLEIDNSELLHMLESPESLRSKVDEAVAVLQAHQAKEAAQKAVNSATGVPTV
Chain of MSI1 (O43347 whole entry): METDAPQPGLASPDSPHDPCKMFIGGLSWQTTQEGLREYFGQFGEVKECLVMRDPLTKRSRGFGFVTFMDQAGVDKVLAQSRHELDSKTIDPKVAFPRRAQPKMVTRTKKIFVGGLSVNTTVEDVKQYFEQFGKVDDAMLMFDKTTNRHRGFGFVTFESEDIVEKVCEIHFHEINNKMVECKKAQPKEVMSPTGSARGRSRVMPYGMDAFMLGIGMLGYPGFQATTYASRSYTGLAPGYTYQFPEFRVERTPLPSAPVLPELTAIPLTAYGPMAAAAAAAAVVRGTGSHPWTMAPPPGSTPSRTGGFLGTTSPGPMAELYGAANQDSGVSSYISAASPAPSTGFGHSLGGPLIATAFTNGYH

What is called Kd is the equilibrium constant for the complex coming apart. Low values mean tighter binding, high ones weaker binding. Regarding AAUAAA, the Kd in the data set with CHERP came to 255 nM; with SLIRP it was 393 nM; in the data set with PABPC1, 7490 nM; with MSI1 it was 3110 nM; with CPSF3 it was 5.97 nM; with RBMS1 it was 156 nM. The sequence further returned a Kd in the data set with HNRNPD of 764 nM.

For the sequence CUGUCCU, the Kd in the data set with SLIRP was 904 nM; in the data set with PABPC1, 95.9 nM.

Take UAUUUAU: the Kd with CHERP was determined as 19.4 nM; with MSI1, 373 nM; with CPSF3, 270 nM; with RBMS1 it was 114 nM; in the data set with HNRNPD, 583 nM.

(Values after the supplement of paper PMC6379048.)
